These results are taken from PMC3409459, “Absorption, distribution, metabolism and excretion of peginesatide, a novel erythropoiesis-stimulating agent, in rats” (Xenobiotica; the Fate of Foreign Compounds in Biological …, 2011).

Like-named read-outs stand apart in the source and are kept apart here.

For data set [1] the following is noted: cited from earlier work. As to the method: Erythropoietin is deficient in patients with CKD-associated anemia. Administration of ESAs, such as peginesatide, leads to activation of the appropriate signaling at the EPO receptor ([Fan et al. 2006]). […] The principal findings in the single and repeat dose toxicity studies are primarily attributed to the pharmacological effects of peginesatide and secondary sequelae when an ESA is administered to an initially nor ...

Data set [2] can be described thus: Plasma pharmacokinetics of unlabeled peginesatide after a single IV dose (ELISA). In kind it is in vivo, male Sprague-Dawley rats. To be noted: for time for which plasma concentrations were quantifiable: LLOQ 40 ng/mL; for AUC0–t / CL / t½ / Cmax: plasma, mean (SD), n=3; for Cmax: value at 0.25 h. As to the method: Plasma samples were analyzed for peginesatide concentration using a competition enzyme linked immunosorbent assay (ELISA) as previously described ([Fan et al. 2006]). The capture anti-peginesatide antibody was a high affinity polyclonal antibody preparation directed against the peptidic part of the molecule so the assay detects mono- and di-PEG-conjugated peptide as well as free peptide. The lower limit of quantitation was 40 ng-mL^1, the intra assay precision (% coefficient of variation) was 5-10% and the intra assay accuracy (% bias) was 1.9-5.7%.
The PK of peginesatide was assessed in male Sprague-Dawley rats following the administration of unlabeled and radiolabeled test article. The linearity of the PK profile was evaluated in rats (n = 3/group) administered a single IV dose of peginesatide at 0.1, 0.5, or 5 mg·kg^−1. Blood samples were collected predose and 0.25,1, 6, and 24h, and 2,3, 5, 7,10,14,17, 21, 24, and 28 days following dosing. Samples were analyzed by ELISA.
Noncompartmental PK parameters for peginesatide and metabolites were generated using WinNonlin ver. 4.0, Pharsight Corporation (Mountain View, CA). The maximum plasma concentration (Cmax) and their times of occurrence (tmax) were obtained directly from the mean plasma concentration vs. time profiles. The areas under the plasma concentration-time curves […] were estimated by the linear trapezoidal rule - by adding all the area portions under the curve from time zero to the time of the last observed plasma concentration (tn). Elimination rate constants (kz) were estimated by fitting a linear regression of log mean concentration against time data in the terminal exponential phase (at least 3 data points). Apparent terminal half-life (t1/2) was calculated as In2/λz. The AUC0-inf was calculated as the sum of AUC0-t and Cobs/λz, where Cobs, was the actual concentration at the time of the last quantifiable concentration. The plasma clearance (CL) for peginesatide was estimated as the ratio of dose/ AUC0-inf. The mean residence time (MRT) was calculated as the ratio of AUMC0-inf/AUC0-inf, where AUMC0-inf was the area under the first moment curve from the time zero to infinity. The volume of distribution at steady state (Vss) was estimated as CL x MRT.
On the technique in general: In an ELISA, binding on a coated surface is turned into a signal by an enzyme label.

A short description of data set [3]: Radioactivity in plasma, skin and eyes of pigmented vs albino rats (affinity for melanin). In kind it is in vivo, male Long Evans (pigmented) rats. Particulars: single IV 5 mg·kg^−1 [^14C]-peginesatide; through 60 days; LSC; n=3 per time point. As to the method:
Male Sprague-Dawley (albino) rats (n = 21; three per time point) were administered a single IV dose of 5 mg·kg^−1 [^14C]-peginesatide (27.5 μCi/kg) and tissue concentrations of radioactivity determined at 0.25, 6, and 24 h, and 7,14,30 and 60 days following dosing. Similarly, male Long Evans (pigmented) rats (n = 21; three per time point) were administered a single IV dose of 5 mg-kg^−1 [^14C]-peginesatide and plasma, skin, and eye concentrations of radioactivity were measured at the various time points through 60 days after dosing. At each time point, blood was collected, the animals sacrificed, and tissues excised. Tissues collected from the Sprague-Dawley rats included blood, plasma, adrenals, bone marrow, brain, eyes, fat, femur, Harderian glands, heart, hypophysis, intestine, kidneys, lungs, liver, pancreas, skeletal muscle, skin, spinal cord, spleen, stomach, submaxillary glands, testes, thymus, thyroid gland, and urinary bladder. Plasma, eyes, non-pigmented skin, and pigmented skin were collected from Long Evans rats. All tissue samples were measured for radioactivity by LSC following combustion. […] The concentration of radioactivity in the blood, plasma, and tissues was calculated and expressed as ug equiv·g^-1 or mLbased on the LSC counts and the specific activity of the dosing solution.

Details of data set [4]: species or system male Sprague-Dawley rats. To be noted: rat, in vivo, iv. As to the method:
The metabolite profiling in the biological samples from rats dosed with [^14C]-peginesatide was performed by high-performance liquid chromatography (HPLC). The radiolabeled materials in the samples of plasma and aqueous homoge-nates of tissues and feces were extracted with five volumes of methanol containing 0.1% of trifluoroacetic acid (TFA), mixed and centrifuged at 1500g at 4°C for l0 min to obtain supernatant. A portion of the supernatant was counted to estimate the extraction recovery of [^14C]-peginesatide and its related compounds in the biological samples. The rest of the supernatant was evaporated to dryness under a nitrogen gas stream. The residue was re-dissolved in a small volume of equal parts mobile phase [MP(A)] and B [MP(B)] for chromatographic analysis. The HPLC system (Simadzu, Kyoto, Japan) consisted of a LC-lOADvp pump, a CTO-lOACvp column oven, an SPD-lOAvp UV detector, and an SCL-lOAvp system controller. […] A mixture of 0.1% TFA aqueous solution and 0.1% TFA in methanol solution were used for MP(A) and MP(B), respectively. The flow rate was 0.5mL/min, and the peaks were monitored by a UV absorption detector at 215 run. The time for the gradient elution was as follows: the concentration of MP(B) was increased from 50 to 80% and from 80 to 83% over a period of 2-10min and 10-20min, respectively. […] The effluentwas collected into 0.5mL size fractions, followed by counting of the radioactivity (LSC). Under these conditions unchanged peginesatide and mono-PEG eluted at approximately 22 and 10 min, respectively.
The urine and fecal samples were obtained from the animals (n = 3) dosed in the mass balance study. Urine and fecal samples were collected every 24h and were combined into 2 aliquots (0-168 and 168-336h) for metabolite analysis. The urine and fecal samples were subjected to analysis by HPLC-fraction collection. Urine sample radioactivity was measured by LSC and fecal homogenate samples were measured by LSC following combustion.

Data set [5] in a line: In vivo metabolite profiling, plasma and tissues at 14 days. Set-up: species or system male Sprague-Dawley rats. Particulars: single IV 5 mg/kg [^14C]-peginesatide; HPLC fractions/LSC; n = 3.

For Peginesatide, the “reticulocytes and hemoglobin levels” value in data set [1] (single IV administration in humans, ref Stead et al. 2006) is “dose-dependent increases in reticulocytes and hemoglobin levels”. Besides, in data set [1] (single IV administration in rats, ref Fan et al. 2006), the “reticulocytes and hemoglobin levels” value was “dose-dependent increases in reticulocytes and hemoglobin levels”. In data set [2] (0.1 mg·kg^−1 IV), the “time for which plasma concentrations were quantifiable” value turned out to be 3 days, the “AUC0–t” value was 60.3 (4.71) μg·h/mL, the CL is on record as 1.65 (0.13) mL/h/kg and the t½ was 17.5 (0.3) h. The Cmax in data set [2] (0.1 mg·kg^−1 IV) is 2.56 (0.162) μg/mL. Also, in data set [2] (0.5 mg·kg^−1 IV), the “AUC0–t” value is recorded as 388 (48.8) μg·h/mL, the CL was 1.29 (0.18) mL/h/kg, the t½ is 19.7 (2.6) h and the Cmax is reported as 13.5 (1.40) μg/mL. Further, in data set [2] (5 mg·kg^−1 IV), the “time for which plasma concentrations were quantifiable” value is given as “up to 7 days”, the “AUC0–t” value is given as 5405 (327) μg·h/mL, the CL was 0.92 (0.06) mL/h/kg and the t½ is listed as 31.6 (3.4) h. Moreover, in data set [2] (5 mg·kg^−1 IV), the Cmax is given as 137 (6.19) μg/mL. Moreover, the “association with melanin (kinetics in plasma, skin and eyes of pigmented vs non-pigmented rats)” value in data set [3] is listed as “neither peginesatide nor the other radioactive components associated with melanin”. Moreover, in data set [4], the “Percent dose excretion, Feces 0–168 h” value is 1.9 % dose; the “Percent dose excretion, Feces 0–336 h” value was determined as 1.9 % dose; the “Percent dose excretion, Feces 168–336 h” value is reported as “LOQ (0)”; the “Percent dose excretion, Urine 0–168 h” value came to 23.3 % dose. Moreover, in data set [4], the “Percent dose excretion, Urine 0–336 h” value was found to be 27.5 % dose and the “Percent dose excretion, Urine 168–336 h” value was 4.2 % dose. The “Day 14 concentration, Kidneys” value in data set [5] is on record as 2.64 μg equiv·g^−1 or mL.
